Measurements: patent US10830762 (dated 2020)
Changes are numbered by the printed parent chain. Numbers in names are those of the source.

What was measured:
[1] = molecular target: T1, DDB1 in DF15R cell extracts (UniProt Q16531 2-1140); test: immunoprecipitation and Western blot from DF15R cell extracts (FIG. 24C)
T1 construct: Co-immunoprecipitated with FLAG-tagged CRBN proteins from cell extracts

[2] = molecular target: T2, full-length human GSPT1 (human, UniProt P15170 1-499); test: CRBN immunoprecipitation in the presence of vehicle or Compound C (FIG. 34A)
T2 construct: mature; limits unknown; also called hGSPT1

[3] = molecular target: T3, human GSPT1 G575N (human, UniProt P15170-3 139-637, limits assumed); test: Compound C-induced in vitro binding of GSPT1 to CRBN (FIG. 31C)
T3 construct: also called G575N mutation in GSPT1
T3 sequence (P15170 whole entry G437N): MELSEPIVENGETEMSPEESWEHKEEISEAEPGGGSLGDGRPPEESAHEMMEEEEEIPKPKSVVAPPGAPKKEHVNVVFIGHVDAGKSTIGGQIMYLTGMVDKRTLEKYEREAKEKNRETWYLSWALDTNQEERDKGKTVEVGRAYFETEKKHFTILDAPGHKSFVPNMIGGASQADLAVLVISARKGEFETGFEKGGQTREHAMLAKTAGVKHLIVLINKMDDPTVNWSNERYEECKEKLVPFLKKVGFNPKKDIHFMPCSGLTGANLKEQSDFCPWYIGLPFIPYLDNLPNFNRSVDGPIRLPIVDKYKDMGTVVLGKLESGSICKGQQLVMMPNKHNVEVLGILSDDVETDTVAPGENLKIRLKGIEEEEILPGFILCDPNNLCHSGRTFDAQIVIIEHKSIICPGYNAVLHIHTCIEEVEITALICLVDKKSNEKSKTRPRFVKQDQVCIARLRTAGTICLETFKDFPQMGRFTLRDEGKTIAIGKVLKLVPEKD

T2 sequence (P15170 other isoform, or with tags, fused parts or gaps limits assumed): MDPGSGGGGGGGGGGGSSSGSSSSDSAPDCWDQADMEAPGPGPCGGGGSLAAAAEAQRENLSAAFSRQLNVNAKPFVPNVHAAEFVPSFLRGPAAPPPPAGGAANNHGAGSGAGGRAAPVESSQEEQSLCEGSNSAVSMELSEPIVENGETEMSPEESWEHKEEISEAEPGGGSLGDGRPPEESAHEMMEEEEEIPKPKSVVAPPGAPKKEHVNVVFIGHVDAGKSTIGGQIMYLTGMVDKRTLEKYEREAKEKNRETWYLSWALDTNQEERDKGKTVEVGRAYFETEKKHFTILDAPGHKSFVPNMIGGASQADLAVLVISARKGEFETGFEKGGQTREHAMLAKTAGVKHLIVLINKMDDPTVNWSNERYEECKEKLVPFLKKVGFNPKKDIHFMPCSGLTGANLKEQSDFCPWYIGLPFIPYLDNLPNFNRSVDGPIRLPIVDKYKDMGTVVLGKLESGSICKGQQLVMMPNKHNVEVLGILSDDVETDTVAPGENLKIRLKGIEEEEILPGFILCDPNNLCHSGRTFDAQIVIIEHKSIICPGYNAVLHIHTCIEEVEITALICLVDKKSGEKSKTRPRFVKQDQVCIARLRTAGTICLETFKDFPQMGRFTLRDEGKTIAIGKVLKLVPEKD
T1 sequence (Q16531 2-1140 limits assumed): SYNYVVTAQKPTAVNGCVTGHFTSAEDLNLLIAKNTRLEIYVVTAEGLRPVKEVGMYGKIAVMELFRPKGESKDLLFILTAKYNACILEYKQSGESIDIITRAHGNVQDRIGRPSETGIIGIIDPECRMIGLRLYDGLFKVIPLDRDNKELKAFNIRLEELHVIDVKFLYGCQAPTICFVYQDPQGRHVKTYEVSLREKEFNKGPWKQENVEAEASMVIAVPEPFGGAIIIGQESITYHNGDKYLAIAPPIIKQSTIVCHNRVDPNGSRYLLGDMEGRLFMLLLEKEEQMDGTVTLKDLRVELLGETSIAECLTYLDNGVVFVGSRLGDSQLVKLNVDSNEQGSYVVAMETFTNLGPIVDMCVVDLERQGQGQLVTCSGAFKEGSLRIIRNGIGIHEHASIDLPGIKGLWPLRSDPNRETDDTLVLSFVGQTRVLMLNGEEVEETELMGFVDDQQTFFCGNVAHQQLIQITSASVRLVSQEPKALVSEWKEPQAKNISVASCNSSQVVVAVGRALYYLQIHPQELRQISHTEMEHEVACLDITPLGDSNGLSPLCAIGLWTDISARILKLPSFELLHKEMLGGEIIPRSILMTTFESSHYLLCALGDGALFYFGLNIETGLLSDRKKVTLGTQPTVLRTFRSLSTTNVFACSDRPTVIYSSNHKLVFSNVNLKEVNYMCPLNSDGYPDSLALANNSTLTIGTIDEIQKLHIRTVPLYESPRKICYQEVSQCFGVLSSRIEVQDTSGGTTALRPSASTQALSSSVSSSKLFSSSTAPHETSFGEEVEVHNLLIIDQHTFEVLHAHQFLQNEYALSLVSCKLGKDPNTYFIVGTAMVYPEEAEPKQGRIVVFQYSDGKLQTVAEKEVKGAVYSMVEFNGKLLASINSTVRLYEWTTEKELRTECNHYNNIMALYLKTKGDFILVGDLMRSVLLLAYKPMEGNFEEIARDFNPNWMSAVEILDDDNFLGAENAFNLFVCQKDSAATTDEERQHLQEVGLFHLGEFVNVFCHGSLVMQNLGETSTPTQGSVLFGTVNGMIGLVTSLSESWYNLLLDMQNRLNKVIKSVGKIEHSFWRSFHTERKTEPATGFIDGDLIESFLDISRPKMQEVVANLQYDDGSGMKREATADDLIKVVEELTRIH

B1: full length CRBN W386A (CRBN^W386A), FLAG-tagged, re-expressed in DF15R cells (other, human, UniProt Q96SW2 1-442, looked up)
chain: MAGEGDQQDAAHNMGNHLPLLPAESEEEDEMEVEDQDSKEAKKPNIINFDTSLPTSHTYLGADMEEFHGRTLHDDDSCQVIPVLPQVMMILIPGQTLPLQLFHPQEVSMVRNLIQKDRTFAVLAYSNVQEREAQFGTTAEIYAYREEQDFGIEIVKVKAIGRQRFKVLELRTQSDGIQQAKVQILPECVLPSTMSAVQLESLNKCQIFPSKPVSREDQCSYKWWQKYQKRKFHCANLTSWPRWLYSLYDAETLMDRIKKQLREWDENLKDDSLPSNPIDFSYRVAACLPIDDVLRIQLLKIGSAIQRLRCELDIMNKCTSLCCKQCQETEITTKNEIFSLSLCGPMAAYVNPHGYVHETLTVYKACNLNLIGRPSTEHSWFPGYAATVAQCKICASHIGWKFTATKKDMSPQKFWGLTRSALLPTIPDTEDEISPDKVILCL
notes: mature; not shown: FLAG tag
[1]
  binding result: binds

B2: human CRBN E377V (other, UniProt Q96SW2 1-442, looked up)
chain: B1 chain with E377V, A386W
[2]
  binding result: no binding

B3: full length CRBN W400A (CRBN^W400A), FLAG-tagged, re-expressed in DF15R cells (other, human, UniProt Q96SW2 1-442, looked up)
chain: B1 chain with A386W, W400A
notes: mature; not shown: FLAG tag
[1]
  binding result: binds

B4: human CRBN H357A (other, UniProt Q96SW2 1-442, looked up)
chain: B1 chain with H357A, A386W
[2]
  binding result: no binding

B5: human CRBN E377A (other, UniProt Q96SW2 1-442, looked up)
chain: B1 chain with E377A, A386W
[2]
  binding result: no binding

B6: human WT CRBN (other, UniProt Q96SW2 1-442, looked up)
chain: B1 chain with A386W
notes: also called cereblon; hCRBN
[3]
  binding result: no binding
